We go through 1 molecule from PMC4407014 (Immunology and Cell Biology, 2014).

The assay deals with Recombinant human CD4 (crystallisation construct) (Homo sapiens, UniProt P01730). As to the kind of experiment: crystal structure.

B1: Fab fragment of BT-061 (tregalizumab) (Fab, V domains shown)
VH: EEQLVESGGGLVKPGGSLRLSCAASGFSFSDCRMYWLRQAPGKGLEWIGVISVKSENYGANYAESVRGRFTISRDDSKNTVYLQMNSLKTEDTAVYYCSASYYRYDVGAWFAYWGQGTLVTVSS
VL: DIVMTQSPDSLAVSLGERATINCRASKSVSTSGYSYIYWYQQKPGQPPKLLIYLASILESGVPDRFSGSGSGTDFTLTISSLQAEDVAVYYCQHSRELPWTFGQGTKVEIK
On to B1, for which the binding result is recorded as “binds”.
